Test results as given in US6001988, “High affinity nucleic acid ligands to lectins” (NeXstar Pharmaceuticals, Inc.).

Experiments:
[1] = biological target: T1, L-selectin (LS-Rg) (Homo sapiens, UniProt P14151 P14151:39-332); assay: filter; room temp; 380 pM at 37 C; table prints SEQ 155, Table XII and text give 133; conditions: tags: human IgG2 Fc fusion (provided by A. Varki); label: 32P; hairpin
T1 chain: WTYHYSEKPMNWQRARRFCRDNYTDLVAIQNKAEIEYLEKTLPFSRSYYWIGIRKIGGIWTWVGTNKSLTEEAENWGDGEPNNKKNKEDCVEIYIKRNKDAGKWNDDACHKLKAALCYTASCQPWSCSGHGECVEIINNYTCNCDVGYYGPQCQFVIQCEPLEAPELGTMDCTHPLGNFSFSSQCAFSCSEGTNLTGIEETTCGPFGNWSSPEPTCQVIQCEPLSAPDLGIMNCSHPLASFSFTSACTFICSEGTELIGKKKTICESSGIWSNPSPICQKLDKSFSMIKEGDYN

[2] = biological target: T2, P-selectin (PS-Rg) (Homo sapiens, UniProt P16109 P16109:42-321); assay: filter; room temp, Ca/Mg buffer; conditions: tags: lectin, EGF and first two CRD domains fused to human IgG1 Fc (provided by A. Varki); chain copies: 2 (dimeric Fc chimera, inferred)
T2 chain: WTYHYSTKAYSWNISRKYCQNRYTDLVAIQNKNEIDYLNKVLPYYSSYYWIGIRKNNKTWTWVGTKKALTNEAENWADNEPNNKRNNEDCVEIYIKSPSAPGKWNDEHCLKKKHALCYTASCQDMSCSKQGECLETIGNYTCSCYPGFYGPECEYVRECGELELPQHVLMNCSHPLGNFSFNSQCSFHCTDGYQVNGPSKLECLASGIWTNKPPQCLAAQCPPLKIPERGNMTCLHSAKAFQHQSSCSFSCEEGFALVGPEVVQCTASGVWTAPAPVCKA

[3] = biological target: T3, E-selectin (ES-Rg) (Homo sapiens, UniProt P16581 P16581:22-556); assay: filter; room temp, Ca/Mg buffer; conditions: tags: extracellular domain fused to human IgG1 Fc (provided by A. Varki); chain copies: 2 (dimeric Fc chimera, inferred)
T3 chain: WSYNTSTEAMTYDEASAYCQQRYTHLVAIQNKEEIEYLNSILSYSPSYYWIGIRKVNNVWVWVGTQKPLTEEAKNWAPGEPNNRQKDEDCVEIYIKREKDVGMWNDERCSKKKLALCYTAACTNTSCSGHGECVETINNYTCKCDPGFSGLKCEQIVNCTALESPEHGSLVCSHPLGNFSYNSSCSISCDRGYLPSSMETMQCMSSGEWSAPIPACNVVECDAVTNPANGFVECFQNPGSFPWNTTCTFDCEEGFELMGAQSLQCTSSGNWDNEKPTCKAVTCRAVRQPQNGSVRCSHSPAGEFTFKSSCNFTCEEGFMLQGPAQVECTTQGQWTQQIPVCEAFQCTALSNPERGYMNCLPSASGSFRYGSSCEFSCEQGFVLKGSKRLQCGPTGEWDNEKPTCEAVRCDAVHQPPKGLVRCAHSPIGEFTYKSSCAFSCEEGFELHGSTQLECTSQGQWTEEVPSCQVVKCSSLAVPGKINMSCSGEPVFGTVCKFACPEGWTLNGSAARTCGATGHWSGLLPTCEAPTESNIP

[4] = biological target: T1, L-selectin (LS-Rg); assay: filter; room temp; 3.4 nM at 37 C; conditions: tags: human IgG2 Fc fusion (provided by A. Varki); label: 32P
[5] = biological target: T1, L-selectin (LS-Rg); assay: filter; room temp; 1.6 nM at 37 C; conditions: tags: human IgG2 Fc fusion (provided by A. Varki); label: 32P
[6] = biological target: T1, L-selectin (LS-Rg); assay: filter; room temp; 3.7 nM at 37 C; conditions: tags: human IgG2 Fc fusion (provided by A. Varki); label: 32P; hairpin
[7] = biological target: T1, L-selectin (LS-Rg); assay: filter; room temp; 970 pM at 37 C; conditions: tags: human IgG2 Fc fusion (provided by A. Varki); label: 32P; hairpin
[8] = biological target: T1, L-selectin (LS-Rg); assay: filter; room temp; 1.0 nM at 37 C; conditions: tags: human IgG2 Fc fusion (provided by A. Varki); label: 32P; hairpin
[9] = biological target: T1, L-selectin (LS-Rg); assay: filter; room temp; 1.2 nM at 37 C; Table XIV prints 110 nM; conditions: tags: human IgG2 Fc fusion (provided by A. Varki); label: 32P; hairpin
[10] = biological target: T1, L-selectin (LS-Rg); assay: filter; room temp; 2.0 nM at 37 C; conditions: tags: human IgG2 Fc fusion (provided by A. Varki); label: 32P; hairpin
[11] = biological target: T1, L-selectin (LS-Rg); assay: filter; room temp; 8.5 nM at 37 C; conditions: tags: human IgG2 Fc fusion (provided by A. Varki); label: 32P; hairpin

B1: 208 (ssDNA)
DNA: CTACCTACGATCTGACTAGCCACGTTTCAAGGGGTTACACGAAACGATTCACTCCTTGGCGCTTACTCTCATGTAGTTCC
Kd [1]: 0.11 nM

B2: 196 (ssDNA)
DNA: CTACCTACGATCTGACTAGCTGGCGGTACGGGCCGTGCACCCACTTACCTGGGAAGTGAGCTTACTCTCATGTAGTTCC
Kd [2]: 3400 nM
Kd [3]: 50 nM
Kd [4]: 0.13 nM

B3: 239 (ssDNA)
DNA: CTACCTACGATCTGACTAGCCCACAGACAATCGCAGTCCCCGTGTAGCTCTGGGTGTCTGCTTACTCTCATGTAGTTCC
Kd [5]: 0.17 nM

B4: 204 (ssDNA)
DNA: CTACCTACGATCTGACTAGCGGAACACGTGAGGTTTACAAGGCACTCGACGTAAACACTTGCTTACTCTCATGTAGTTCC
Kd [2]: 2900 nM
Kd [3]: 1500 nM
Kd [6]: 0.1 nM

B5: 193 (ssDNA)
DNA: CTACCTACGATCTGACTAGCCCAGGAGCACAGTACAAGGTGTTAAACGTAATGTCTGGTGCTTACTCTCATGTAGTTCC
Kd [7]: 0.088 nM

B6: 183 (ssDNA)
DNA: CTACCTACGATCTGACTAGCGGCATCCCTGAGTCATTACAAGGTTCTTAACGTAATGTACGCTTACTCTCATGTAGTTCC
Kd [8]: 0.17 nM

B7: 201 (ssDNA)
DNA: CTACCTACGATCTGACTAGCCAAGGTAACCAGTACAAGGTGCTAAACGTAATGGCTTCGGCTTACTCTCATGTAGTTCC
Kd [2]: 1000 nM
Kd [3]: 37 nM
Kd [9]: 0.11 nM

B8: 182 (ssDNA)
DNA: CTACCTACGATCTGACTAGCTAGTGCTCCACGTATTCAAGGTGCTAAACGAAGACGGCCTGCTTACTCTCATGTAGTTCC
Kd [10]: 0.13 nM

B9: 108 (ssDNA)
DNA: CTACCTACGATCTGACTAGCGAGTAGCCAAGGCGTTAGACGGAGGGGGAATGTGAGCACAGCTTACTCTCATGTAGTTCC
Kd [11]: 0.16 nM
